The Kd is the concentration at which binding is half-saturated. High values mean weaker binding, low ones tighter binding. In general, koff refers to the rate constant with which the complex falls apart. A lower koff goes with slow dissociation. The term kon denotes the rate constant with which the complex forms. Read a low kon as slow association.

Test [1] has as its target T1, human EGFR (EGR-H5222, Acro Biosystem) (human, UniProt P00533 25-645).
T1 construct: Bought reagent; also called antigen A
Briefly: BLI (Octet Red96e), antibody captured on AHC sensor, human EGFR 100 nM in solution.

Test [2] has as its target T2, human B7H3 (B73-H52E2, Acro Biosystem) (human, UniProt Q5ZPR3-2 29-245).
T2 construct: also called CD276; antigen B
T2 sequence (looked up): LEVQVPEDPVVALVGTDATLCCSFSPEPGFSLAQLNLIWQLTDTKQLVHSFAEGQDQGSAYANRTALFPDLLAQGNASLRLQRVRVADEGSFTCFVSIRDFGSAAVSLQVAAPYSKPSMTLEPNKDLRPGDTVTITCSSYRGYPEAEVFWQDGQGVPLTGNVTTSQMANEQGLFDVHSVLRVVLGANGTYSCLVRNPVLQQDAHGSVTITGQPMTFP
Briefly: BLI (Octet Red96e), antibody captured on AHC sensor, human B7H3 100 nM in solution.

Test [3] concerns the target EGFR Del19 (amplified) on H1650 cells (UniProt P00533 25-1210). Briefly: cell-based or functional assay.
Test [4] has as its target EGFR, wild type, on tumour cells (H508, TE-1, Colo-680N, H292, H322, H358; amplified in SK-MES-1 and H1703) (UniProt P00533 25-1210, limits assumed). In words: cell-based or functional assay.
Test [5] has as its target EGFR L858R/T790M on H1975 cells (UniProt P00533 25-1210, limits assumed). In words: cell-based or functional assay.
For test [6], the target named is EGFR R521K on HT-55 and LS180 cells (UniProt P00533 25-1210, limits assumed). In words: cell-based or functional assay.
Test [7] concerns the target EGFR R521K/Y1069C on CCK-81 cells (UniProt P00533 25-1210, limits assumed). Briefly: cell-based or functional assay.

B1: Hz5C2.9/Zalu bsAb bispecific antibody molecule (bispecific antibody, human IgG1, kappa)
heavy 1: not shown
light 1: not shown
heavy 2: not shown
light 2: EIVLTQSPGTLSLSPGERATLSCRSSQSLVHSQGITYLDWYQQKPGQAPRLLIYKVSNRFSGIPDRFSGSGSGTDFTLTISRLEPEDFAVYYCSQGTHVPPWTFGGGTKVEIKRTVAAPSVFIFPPSDEQLKSGTASVVCLLNNFYPREAKVQWKVDNALQSGNSQESVTEQDSKDSTYSLSSTLTLSKADYEKHKVYACEVTHQGLSSPVTKSFNRGEC
notes: IgG1-like, four polypeptide chains, Innobody heterodimer Fc mutations; low fucose (GlymaxX)
In the case of B1, in test [1], the Kd amounted to 4.69 nM, the koff is 0.00124 s⁻¹ and the on-rate constant (kon) is 264000 M⁻¹ s⁻¹. In test [2], the affinity, expressed as Kd, was 8.25 nM; the koff was found to be 0.00352 s⁻¹; the kon was 427000 M⁻¹ s⁻¹.

B2: Hz20G5.26/Zalu bsAb bispecific antibody molecule (bispecific antibody, human IgG1, kappa)
heavy 1: not shown
light 1: not shown
heavy 2: not shown
light 2: DIQLTQSPSFLSASVGDRVTITCSASSSVSYIHWYQQKPGKAPKRWIYDTSRLASGVPSRFSGSGSGTEFTLTISSLQPEDFATYYCQQWSSAPLTFGGGTKVEIKRTVAAPSVFIFPPSDEQLKSGTASVVCLLNNFYPREAKVQWKVDNALQSGNSQESVTEQDSKDSTYSLSSTLTLSKADYEKHKVYACEVTHQGLSSPVTKSFNRGEC
notes: also called anti-B7-H3/EGFR bispecific antibody
Turning to B2, binding in test [1] was characterised by a dissociation constant (Kd) of 4.59 nM. This molecule came in with a Kd in test [2] of 2.48 nM. Moreover, the “IC50(nM), proliferation inhibition, H1650 cells” value in test [3] worked out at 4.86 nM. Moreover, in test [4], the “IC50(nM), proliferation inhibition, Colo-680N cells” value is 12.3 nM; the “IC50(nM), proliferation inhibition, H292 cells” value worked out at 57.8 nM; the “IC50(nM), proliferation inhibition, H508 cells” value was determined as 1.08 nM; the “IC50(nM), proliferation inhibition, SK-MES-1 cells (EGFR amplification)” value was 0.4 nM. The “IC50(nM), proliferation inhibition, TE-1 cells” value in test [4] turned out to be 16 nM. In addition, the “IC50(nM), proliferation inhibition, H1975 cells” value in test [5] stood at 0.99 nM. Moreover, in test [6], the “IC50(nM), proliferation inhibition, HT-55 cells” value worked out at 0.14 nM and the “IC50(nM), proliferation inhibition, LS180 cells” value came out at 1.33 nM. Moreover, in test [7], the “IC50(nM), proliferation inhibition, CCK-81 cells” value worked out at 0.24 nM.

B3: Hz19A2.25/Zalu bsAb bispecific antibody molecule (bispecific antibody, human IgG1, kappa)
heavy 1: not shown
light 1: not shown
heavy 2: not shown
light 2: EIVLTQSPATLSLSPGERATLSCSVSSSVQSNYLYWYQQKPGQAPRLLIYGTSNLASGIPARFSGSGSGTDFTLTISSLEPEDFAVYYCYQWSSYPFTFGQGTKLEIKRTVAAPSVFIFPPSDEQLKSGTASVVCLLNNFYPREAKVQWKVDNALQSGNSQESVTEQDSKDSTYSLSSTLTLSKADYEKHKVYACEVTHQGLSSPVTKSFNRGEC
notes: as for B1
On to B3, for which, in test [1], the Kd turned out to be 4.19 nM, the koff came out at 0.00121 s⁻¹ and the kon is 289000 M⁻¹ s⁻¹. Further, in test [2], the Kd worked out at 6.73 nM, the koff came to 0.00219 s⁻¹ and the kon came out at 326000 M⁻¹ s⁻¹.

The values above are taken from patent US20250381269A1 (FORTVITA BIOLOGICS SINGAPORE PTE, published 2025).
